Laboratory results: US8163697B2, “Selective R-cadherin antagonists and methods” (The Scripps Research Institute, priority 2003, dated 2012)
Where a SMILES comes first, the peptide text is derived from it. Bridges are numbered along the chain shown (N, C = ends). Where no end group is shown, it is not given here.

Experiments:
N-cadherin = target: T1, N-cadherin (Mus musculus, UniProt P15116); assay: Aggregation assay, N-cadherin transfected L-cells; type: cell-based; conditions: N-cadherin expressing L-cells; for IC50: 2 hours incubation, 5 mM CaCl2, read-out: IC50, inhibition of N-cadherin mediated aggregation
T1 construct: expressed in transfected cells
T1 sequence (P15116 160-906): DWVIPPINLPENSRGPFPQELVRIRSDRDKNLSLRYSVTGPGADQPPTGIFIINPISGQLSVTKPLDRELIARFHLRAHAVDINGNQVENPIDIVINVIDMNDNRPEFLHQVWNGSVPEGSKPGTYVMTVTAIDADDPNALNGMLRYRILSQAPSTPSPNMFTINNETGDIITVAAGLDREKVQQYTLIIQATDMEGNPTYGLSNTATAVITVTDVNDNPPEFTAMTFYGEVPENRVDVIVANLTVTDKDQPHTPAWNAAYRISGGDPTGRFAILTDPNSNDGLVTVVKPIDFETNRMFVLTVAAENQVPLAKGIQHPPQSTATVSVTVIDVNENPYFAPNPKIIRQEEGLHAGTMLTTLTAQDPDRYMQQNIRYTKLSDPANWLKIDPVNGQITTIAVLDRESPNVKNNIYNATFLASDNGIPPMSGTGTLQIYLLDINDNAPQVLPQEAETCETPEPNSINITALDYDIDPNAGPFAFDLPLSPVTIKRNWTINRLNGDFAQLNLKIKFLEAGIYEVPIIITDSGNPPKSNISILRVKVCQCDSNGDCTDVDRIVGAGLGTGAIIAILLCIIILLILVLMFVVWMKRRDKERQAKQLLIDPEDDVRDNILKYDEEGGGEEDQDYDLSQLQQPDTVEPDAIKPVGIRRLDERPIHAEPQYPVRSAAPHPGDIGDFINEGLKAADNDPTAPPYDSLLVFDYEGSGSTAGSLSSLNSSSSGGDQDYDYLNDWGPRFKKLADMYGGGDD
Excerpt: (§1) Mouse R-cadherin and N-cadherin plasmids were generous gifts from Dr. Masatoshi Takeichi (Kyoto University, Japan). The plasmids were sub-cloned into pDsRed2 N1 vectors (Clontech) to encode for fusion proteins with Red Fluorescent Protein (RFP) attached to the C-terminal end of the cadherin molecules. L-cells (mouse fibroblast L929 cells, ATCC #CRL-2148) were stably transfected with either R or N-cadherin pDsRed2 N1 using the Calcium Phosphate Transfection System (Life Technologies) according to the manufacturer's protocol. After screening by growth in media supplemented with Geneticin (700 μg/mL G418 Geneticin, Gibco BRL), positive clones were selected. Cells were examined for expression of RFP, and were tested for cadherin expression by immunoblotting and immunofluorescence staining. FIG. 6 illustrates the aggregation of L-cells expressing R and N-cadherins.
(§2) L-Cells were grown to near confluency followed by trypsinization with 0.01% trypsin+5 mM CaCl2 and no EDTA (TC) or 0.01% trypsin with 0.1 mM EDTA and no calcium (TE). The cells were collected and washed, followed by resuspension in Hanks buffer solution (HBSS)+1% BSA with (TC) or without (TE) 5 mM CaCl2. Cells were incubated at 37° C. in 0.5 mL solution at 2×10^5 cells per well of a 24 well plate with rocking at about 60-70 rpm with varying peptide concentrations. All assays were performed in triplicate. The extent of cellular aggregation was represented by the ratio of the total particle number after 2 hours of incubation (N2hr) to the initial particle number (N0). Particles were counted on a hemocytometer using the sum of 8 separate 20 μL counts/well, before (N0) and after (Nt) incubation. The results are illustrated in FIG. 8.
Mouse fibroblast cells (lineage L929), commonly referred to as L-cells, were chosen because they are known to contain no endogenous cadherin expression. R-cadherin stable transfectants were created and used to test the effects of the designed peptides on R-cadherin mediated aggregation. N-cadherin stable transfectants were also created and used to evaluate the peptides for cadherin selectivity, based on their effects on N-cadherin mediated aggregation. Immunoblot analysis detected high levels of R-cadherin and no N-cadherin expression in R-cadherin clone 8 (R-cad8), while high levels of N-cadherin expression and no R-cadherin expression was found in N-cadherin clone 3 (N-cad3), as shown in FIG. 7. Immunofluorescence confirmed the expression of the appropriate cadherin in these chosen clones. When tested in the aggregation assay, the morphology of the transfected cell lines was altered as a result of cadherin transfection. […]

R-cadherin = target: T2, R-cadherin (Mus musculus, UniProt P39038); assay: Aggregation assay, R-cadherin transfected L-cells; type: cell-based; conditions: R-cadherin expressing L-cells
T2 construct: expressed in transfected cells
T2 sequence (P39038 167-913): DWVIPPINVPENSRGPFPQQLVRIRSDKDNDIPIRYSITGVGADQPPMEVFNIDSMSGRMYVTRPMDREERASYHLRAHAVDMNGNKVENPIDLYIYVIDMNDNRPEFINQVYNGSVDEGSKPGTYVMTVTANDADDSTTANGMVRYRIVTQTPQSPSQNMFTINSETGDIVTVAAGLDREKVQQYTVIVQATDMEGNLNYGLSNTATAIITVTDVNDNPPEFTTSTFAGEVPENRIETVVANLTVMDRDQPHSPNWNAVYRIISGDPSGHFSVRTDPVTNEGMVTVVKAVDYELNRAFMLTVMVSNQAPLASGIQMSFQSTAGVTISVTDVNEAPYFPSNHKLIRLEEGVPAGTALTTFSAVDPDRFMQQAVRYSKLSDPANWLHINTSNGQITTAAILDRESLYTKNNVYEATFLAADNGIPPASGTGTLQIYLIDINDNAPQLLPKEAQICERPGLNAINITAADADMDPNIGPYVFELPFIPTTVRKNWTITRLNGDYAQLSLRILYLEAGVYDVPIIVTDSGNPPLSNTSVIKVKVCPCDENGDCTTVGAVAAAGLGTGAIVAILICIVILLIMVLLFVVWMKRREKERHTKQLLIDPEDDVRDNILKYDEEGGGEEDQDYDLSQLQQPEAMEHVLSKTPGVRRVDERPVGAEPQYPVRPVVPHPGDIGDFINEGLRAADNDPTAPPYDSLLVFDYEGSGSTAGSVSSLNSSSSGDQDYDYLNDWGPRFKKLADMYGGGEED
Excerpt: as §1
as §2, with “The results are illustrated in FIG. 8.” left out
Mouse fibroblast cells (lineage L929), commonly referred to as L-cells, were chosen because they are known to contain no endogenous cadherin expression. […] Immunoblot analysis detected high levels of R-cadherin and no N-cadherin expression in R-cadherin clone 8 (R-cad8), while high levels of N-cadherin expression and no R-cadherin expression was found in N-cadherin clone 3 (N-cad3), as shown in FIG. 7. […]

IC50 (N-cadherin)	IC50 (R-cadherin; 2 hours incubation, 5 mM CaCl2, read-out: IC50, inhibition of R-cadherin mediated aggregation)	effect on N-cadherin mediated aggregation (N-cadherin)	effect on R-cadherin mediated aggregation (R-cadherin)	Molecule
150 to 200 µM	150 to 200 µM	–	–	CC(=O)N[C@H]1CSSC[C@@H](C(N)=O)NC(=O)[C@H](C(C)C)NC(=O)[C@H](C)NC(=O)[C@H](Cc2c[nH]cn2)NC1=O [cyclic HAV, CHAVC]
–	–	little effect	little effect	cyclic CSDIC (disulfide 1-5; also: peptides said to be amide-blocked at N-terminus and acetylated at C-terminus (as worded)) [cyclic SDI, control cyclic peptide CSDIC]
–	–	little effect	little effect	cyclic CRADC (disulfide 1-5; also: peptides said to be amide-blocked at N-terminus and acetylated at C-terminus (as worded)) [cyclic RAD, control cyclic peptide CRADC]
< 300 µM	–	–	–	CC[C@H](C)[C@@H]1NC(=O)[C@@H](NC(C)=O)CSSC[C@@H](C(N)=O)NC(=O)[C@@H]2CCCN2C(=O)[C@H](CC(N)=O)NC1=O [cyclic INP, cyclic CINPC] (Ac-CINPC-NH2; disulfide 1-5)
